{
  "source": "the DeepSol protein solubility set",
  "data": [
    {"assay": "soluble on expression in E. coli; label from the status in PepcDB or PDB records", "values": [
      {"sequence": "MIVIEGSDKFKIAKEYIDVEYTLFSKVTFRYEKLKFKDNAELEKIKMFKYKNGYIPNKLNLSFGYGFSSYKKQIIRETVDTLRLTEIFSSENIEDIKFIKDGTKKLEISIEKVVKFKRRKKRNYVCCYCPDMYRDIKLDKESINKIYNRKIKIEREVNIFEDEDVIINKKVLKFPKSWTKNMQKYWLSENKYPIHSTVIDDDRYKCCNVQYTKNRVIILYYIYNH", "soluble on expression in E. coli": "not soluble"},
      {"sequence": "MGSDKIHHHHHHMSKIGLTTTVPVEVIYAAGDTPVDLNNIFISDTREAMLRIEEAELAGYPRNVCGWIKGLYATALKSPEIKKIVAVTQGDCSNTHALMETWSEEGIEIIPFAFPYDRDGDMLRLQLEKLITALGTTWDQVREQKVRLDQVRQLAWEIDRLTWQENQVRGFENHLHLVSCSDFNGDPEGFARDLEGFIAEAREREPLNLQFKGRKKRELRLGFMGVPPIMPDLYNFLEEHGARVVFNEVQRQFSMPFATEDIVEQYQLYTYPYNVFGRIEDVAQEAERRQLDGLIHYTQSFCYRQIEDLIVRRRLDYPILNLEGENPTGLDARSKMRLESFLQMLRD", "soluble on expression in E. coli": "not soluble"},
      {"sequence": "MNNLMVIDGIEVRRDAYGRYSLNDLHRAAGSLDKHKPAFWLRNEQTERLISELQICNSVNIEPVNVIRGGNNQGTYVCKELVYAYAMWISPSFHLKVIRTFDMV", "soluble on expression in E. coli": "not soluble"},
      {"sequence": "MLSLPPPEFYKLWIINKSPYQLFNIYRSGIMKVKVLDASAIIHGYNPIIEEGEHYTTPEVLEEIESKKIIVEQALDFGKLKIMSPNREYIKKVEEVVKKTGDNLSQQDIGVLALALNLNAILYTDDYGIQNVAKKLNIEVRGIAFEPTNKDFIWRKICEGCKKLYPVDYEEDICEICGSPLKRKMVKSRLKKKRKKKLEHHHHHH", "soluble on expression in E. coli": "soluble"},
      {"sequence": "SEMIVDHRQKAFELLKVDAEKILKLIRVQMDNLTMPQCPLYEEVLDTQMFGLSREIDFAVRLGLVDEKDGKDLLYTLERELSALHDAFTAK", "soluble on expression in E. coli": "not soluble"},
      {"sequence": "MGSDKIHHHHHHMFDPETLRTFISVAETGSFSKAAERLCKTTATISYRIKLLEENTGVGLFFRTTRSVSLTAAGSHLLSQAKDWLAWLDSMPDELRQVNDGVERQVNIVVNNLLYSPQAVASLLSWLNARYPFTQFHFSRQIYMGVWDSLLYEGFSLAIGVTGTEPLANTFMLDPLGSVQWRFVMSADHPLAHVSGPLTEAQLRRFPAINIEDSARTLTKRVAWRLPGQKEIIVPDMETKIAAHLAGVGIGFVPQPLCQTLIDKNELVSCTIPTMRPPSPLSLAWHKFGGGKAVEDIVKLFTQRQPEIAGFLSIFNTVRC", "soluble on expression in E. coli": "not soluble"},
      {"sequence": "MGSDKIHHHHHHMKIMVSEQFQCFMASLGVDLNSLLEAAGINKVVWQEQLMLSDVEYWQLMNEFDNQLTDEMILSLGNITNINTFMPSFFAALAAKNGEQAIARMATYKSLAGPVHLEIVTKPDIVNIHILGNSLGVELPRFTIMTEQLLLISLLRVGTGKLIKPISVGSKYPYGDQIDAVMGIRPQQLADNCIQFQVTDLQRAFISANNSMWAFLQPGLDQQKLAIEHNQSLLATVQALLLKKIPSGSFSIDEIATSLNLSKRTLQRHLSTLSTTFNDEVQIARRTLVVPLMKDQSLNLIEISYLLGYSDPESFSRAFKKWFHQSPSVYRQQSLGMFKN", "soluble on expression in E. coli": "not soluble"},
      {"sequence": "MGSDKIHHHHHHMLVTELNIYPLKSARGIALKESAVSAEGLPGDRRAMLTDPSGHFITQRELPAIATVLARHEDGGMALSRERSGEIFARPSGQRMDVAVWKSIVSANIADDETNDTLSAWLGREVKLVFFDDAAKRIASLEWTGNETPVTFADGYQILVTTTASLAALNDNMRGNGEDAVGMERFRPNIVLETEEAWAEDRWAAIEIGGIRFDLVKPCARCIMTTQDQMTGSRDVPSPMKAMGRIRMSGDRRVPGPLFGWNVTPRGEGRLSVGDVARVVEERPEGWAIKRR", "soluble on expression in E. coli": "not soluble"},
      {"sequence": "MDEIAIDPSINQDMSASEIYRFEGTLYTLPFVTKNNDISWNKSRDEYKSECRTFPPLYKSLFDRQKCGKVRFSPPLSLEQNVNAHLKGSSSQHMTTILQGVEDAGYVFPDIDMLVTTEVLNTIAGSIFNQEKSWKLRAYVTQVQGKNMVIVCDDDFEHHQRISSTQSDFPIERTEALNFAHSICVRDGTRELNNSLHGSEVVVSTIKFREKSVKMIVIGEVDLVTGKNNKSLNTIVATGRTARASFGHNVESRVDSLDYLWSRCFWLGQRLCLVGMRSTEEAPVSSAYLYSLYPPTLKERKRTNYRVDVATTCVAQVMIRLREEAAKMPHANWIIEYTGRDKEFDPAFIKINVAPDTHSFLLVQEYWHIEKEAFESAEEQKKAEDQNVVEPEKIVRTFHQMKRLPGVRKSGTIAKQFQKIINSMSS", "soluble on expression in E. coli": "not soluble"},
      {"sequence": "MPMNNFLDEFNLFDSIITMMKNDPCCVEDYEPIVENLNRIFQRTFNDEEHRKSMANSQLFWERLRDTLEAMLLPASLNENSSIPYTRTVRGLILMMRNLAAENQEIPQKLLLQNLVIRGFLHATSEYVVDTPLIKHLYIACLTCLFNIQQNYSTVDMTTFPALLQFLQYPYGIKLEDGEEEEHFWLPYLFLFKTYLNNDEFSNEFFRDNDTPQKDYYCVRDRIFFDIVTAKFIQDQENSFLIEKGRNYLDDSKLEITSIDLSVLECISKSLTTASFGKYLNGLEERQPGKFTTLLQILQLVVTSKEDWNTYELTAIMSWCYPILQRLACKDIPAFFNKSCNDYAPSVAIQLHSTLLSCLDIISDLCKFNHVRKFLISYDSVKILVSLLDTFQKNLLRINFLKGNGDTVNEIKITDHEGNKIEDRLLIFNRVNTNESFIRADNFPHCKLVIIEILASLVYAHPEIQDQIRELGGLALILSNCVIDDNDPFIKERSIVCLKFLLKNNAKNQEYVKKMEAQDVVQDDALSKAGFEISVEKGGKVRLVSKEEDPGNENSEIISIDED", "soluble on expression in E. coli": "not soluble"},
      {"sequence": "MGSDKIHHHHHHMARLRVYELARKLNMSPKELLQELEELGVNVKSHMSYVDEEMANIIIDLLEEDNRKAKQPSKPKKEKGEEEVEKEVVEKKKKKKITLKPDELKLDIIAEKIGVPQNKIIQDMFVKRGIALRPGQILKLEEVEQILKEYKIEIEIEEEQQTSVEEVDEFELLEKRYQELYEKEKDKLVPRPPVVTVMGHVDHGKTTLLDRIRSTRVAEREEGGITQSIGAYQVEVNGKKITFIDTPGHELFTEMRARGAQATDIVVLVVAADDGVMPQTIEAYNHAKAANVPIIVAINKIDKPNANVEKTKQELVEKLGLIPEEWGGDTIVVPISARTGQGVDELLEMILLVAEMNEIKCYPEGPARAVIIESKLDKKMGPVASAIVKDGVLKVGDAVVASNTYGRVRNLFDDNMRPIREAYPSQPVMILGFEDVPDVHSNVYVVESAEKAKEIVEKRLQRLEAQKQSRKHINLEELMKMMQEKEKKVLNLILKADTYGSVAALKNAINKLQSKEIELNIVHAGVGEISTSDVMLAAAVDGVILGFRVKVNNQARRLAEQEGVDVRTYSIIYKLVEDLKLALEGMLEPEEVEEVIGHGEIRKVFKISKVGKVAGVQMLDGKADRNGFVRIYRNGQLVFGGKIESLKHYKEDVSVVEAPQECGIKFAGFDDIHEGDELEFYVIRKVKRKPTFVEEQADQEQK", "soluble on expression in E. coli": "not soluble"},
      {"sequence": "MCEIFIRANQRSYSVQARSLRLHGVATSVRLEQLFWDVLEEIAARDGMRVTQLIERLYDELVQYRGEAANFTSFLRVCCLRYQVLQAEGRIPADATVPIRSLDAQAVLRGLPANLYDSRPLG", "soluble on expression in E. coli": "soluble"},
      {"sequence": "MKILHTADWHLGQTFYEYDRREEHLHFLEWLKQQIRQHEIDVLLIAGDVFDSPNPSAESQRMYYRFLREVTSENPSLQIIIIAGNHDSAARLEAPNPLLENMNVTVRGVVRRNAEGDIDLQHLIVPLYTEGEVTAYCLAVPYLRQGDYPSAENYSKGVQLLYEQLFNEVKEKGLPVIAMGHLQATGSEISEDDRSERTVIGGLECVSPDAFDEAIAYTALGHLHRSQRVSHRENVRYSGTPMPMSFAERNNASGVVMITISAEGTGIERLA", "soluble on expression in E. coli": "not soluble"},
      {"sequence": "LRIEPVHDVEHSATVRDLEHIVAESRDAGELPRELSTLLGRILDFPTRTAGHAMIPRAHVDTVRAHDSLSSVLEKMGAGHTRYPVVGSSSDDLRGVIHLHDLLGEQSDGPAASRARPAVVVPSSLPLPDVLEQLTAARDEMALVVDEYGGFAGVITIEDLAEELVGEIA", "soluble on expression in E. coli": "not soluble"},
      {"sequence": "MEKLYDVIVVGAGTSGMMAAISAAEQGARVLLIEKNKKAGKKLLMTGGGRCNVTNNRPVDDLIAHIPGNGKFLYSTFAQWNNFDIMNFFESQGVHLKEEDHGRMFPVTNKSKTIIEALLNRLKELDVTLLFSTRVEKLIHKEHKIYGIRTEFEEFHAPAIILTTGGRTYPSTGSTGDGYKIVKRVGHTVTPLYATESPLISDEPYIQEKTLQGLSLQDITLRVLNKKGRVLTEHTMDLLFTHFGISGPAALRCSSFVNKELEKTGEPVTLSLDCFPTQTKQELIHILTEKSKATKKNLVNAWHGILPERLLVFFLERLEMDHLTGQQASQKQIQDFVQLCKEFKLSINKTFPIEKSFVTGGGVSLKEIYPKTLESKIIDGLYFAGELLDVNGYTGGFNITAAFATGHVAGMNAGQRA", "soluble on expression in E. coli": "soluble"},
      {"sequence": "MHHHHHHSSGVDLGTENLYFQSMAHNKIPPRWLNCPRRGQPVAGRFLPLKTMLGPRYDSQVAEENRFHPSMLSNYLKSLKVKMGLLVDLTNTSRFYDRNDIEKEGIKYIKLQCKGHGECPTTENTETFIRLCERFNERNPPELIGVHCTHGFNRTGFLICAFLVEKMDWSIEAAVATFAQARPPGIYKGDYLKELFRRYGDIEEAPPPPLLPDWCFEDDEDEDEDEDGKKESETGSSASFG", "soluble on expression in E. coli": "soluble"},
      {"sequence": "MSLQFIGAGLGRTGTLSLKLALERLGVGRCYHAMELAANLRQDLPQWESAIDGRPDWDRIFAGYAATTDYPGCCFWMELAARYPHAKVILTVRDPDAWFDSVSATIFSGSNNLPSLFGSRGQRLSQFLRRDLGARLGERAFMTDYFRRWNQAVITHIPAPRLLVLDTDTESSWERLCAFLALPVPAFPYPRVHMRGASVPQRPLPTEPALIEQRMRTYLDRLAEEAFAPPTAPLEHHHHHH", "soluble on expression in E. coli": "soluble"},
      {"sequence": "MTPFSDAAKNNTVKTDGDSVSGRDLPITKISEDRFERSAYSAQLANIICDVAPWGASTVFSLTGQWGSGKTSLVNLIRSEESLSNEKWTIVDFNPWVASDPQSLIEEFYRVIVGTVPDDKTGQKIKTVLQKTFSTIGSIAGGVGGFGVLEALALSKGVDAANAVYKTWKQEQDSWPTLYTRAANHFKDLNKRILIVVDDIDRLHTDELALLMKVIRLLGRFPQVNYLLVYEEESLLTTLARSTAVGGSEDDALRFMEKIVQYPFDVPPLTSFQIEKELSALFDKLFQGVSLSGDPEDFALVKSRMFDVWEKTLVTPRLLHRFAALLTNWTRIYGSGEVNGVDLTILATIRIVFPSVYKRLSRAKEVLLQGLEHHHHHH", "soluble on expression in E. coli": "not soluble"},
      {"sequence": "MSLLKINSQLFAIEDTLDDLAAAFLNLEVVRTYKAAQKAFLADKHLQKEISNFQHYNEDYNDQKTFIKYRPEVKQLRRKIFEKKRQLDLNEKVIALRRAEVDLQEVLAKIAQKIAESVSSDVFVDTGLPLAPHKPPHKKGYGNNIKEREGHHHHHH", "soluble on expression in E. coli": "soluble"},
      {"sequence": "MSISQNNFLTMFPVTYTFENGVYSTIINQNTIQTPIPNPIQHHIQNHIQTSIPNTNLLLENVQTDVQKLMVPLIDQQFHIPTSTPLQLAPIPTQIQSQLQPQISQIPIHNQPQIQIQSQVQPQLPTQSQPKPSSKASLDTSSNAFKKYVNPFAPEATVPLPVELEDQYGPYSSSVWKRNERERCRVRNVNDGYERLRKHLPVHFDEKRISKVDTLRLAIRYIKHLDNLLRSELHQYNCKCFNGFQEESEGNILIDISTFNFNSSNNAM", "soluble on expression in E. coli": "not soluble"}
    ]}
  ]
}
